Reference: patent US20210244762A1 (AUTOLUS, published 2021)

Molecular target: T1, Recombinant TGFbRII-Fc protein (R&D systems) (human, UniProt P37173 23-159)
T1 construct: Bought reagent; also called TGFβRII-Fc; TGFβRII-human Fc; not shown: Fc part; human Fc by the names 'TGFβRII-human Fc' / 'TGFbRII-hFc' and the anti-human capture kit; isotype and limits not
Experiment: SPR (Biacore 8K), TGFbRII-Fc captured by anti-human capture kit on CM5, VHH as analyte, 1:1 Langmuir fit, 25 °C
Description: The binding kinetics of these four dAbs for TGFβRII was then investigated using Biacore affinity analysis and the results are shown in Table 3 below.
Recombinant TGFbRII-Fc protein (R&D systems) was immobilised on individual flow cells on a Series S CM5 sensor chip (GE Healthcare) previously functionalised with anti-human capture kit, to a density of 150-200 RU using a Biacore 8K instrument. HBS-P⁺ buffer was used as running buffer is all experimental conditions. Recombinant purified VHH antibodies at known concentrations were used as the ‘analyte’ and injected over the respective flow cells with 150 s contact time and 600s dissociation at […] of flow rate with a constant temperature of 25° C. In each experiment, flow cell 1 was unmodified and used for reference subtraction. A ‘0 concentration’ sensorgram of buffer alone was used as a double reference subtraction to factor for drift. Data were fit to a 1:1 Langmuir binding model using local Rmax.

T1 sequence (P37173 23-159 limits assumed): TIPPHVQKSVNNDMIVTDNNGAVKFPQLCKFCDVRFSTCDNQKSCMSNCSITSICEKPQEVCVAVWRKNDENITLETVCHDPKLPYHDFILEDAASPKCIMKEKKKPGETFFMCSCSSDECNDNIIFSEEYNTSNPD

B1: anti-TGFβRII single domain antibody (dAb) clone H3 (VHH)
VHH: QVQLQQSGGGLVQAGGSLRLACAASGRSFSIYGITWFRQAPGKEREFVAAITGSGLTTNYADSVKGRFTISRDNAKNMVYLQLNSLKPDDTAVYYCAATRAYSGYYGENPTRYAYWGQGTQVTVS
notes: H3 is the one clone not 'related' to the other three; also called dAb H3; anti-TGFbRII VHH H3
- Kd: 0.0672 µM
- koff: 0.119 s⁻¹
- kon: 1.77e+06 M⁻¹ s⁻¹
